{
  "source": "patent US8936806B2",
  "about": "“Periostin induces proliferation of cardiomyocytes and promotes cardiac regeneration” (Children's Medical Center Corporation, priority 2007, dated 2015)",
  "molecules": {"B1": {"name": "periostin: Recombinant periostin, purified from HEK293 cells expressing the full-length human cDNA; secreted protein of 834 amino acids (Seq ID. No. 1) (protein, listed as Homo sapiens)", "chain": "MIPFLPMFSLLLLLIVNPINANNHYDKILAHSRIRGRDQGPNVCALQQILGTKKKYFSTCKNWYKKSICGQKTTVLYECCPGYMRMEGMKGCPAVLPIDHVYGTLGIVGATTTQRYSDASKLREEIEGKGSFTYFAPSNEAWDNLDSDIRRGLESNVNVELLNALHSHMINKRMLTKDLKNGMIIPSMYNNLGLFINHYPNGVVTVNCARIIHGNQIATNGVVHVIDRVLTQIGTSIQDFIEAEDDLSSFRAAAITSDILEALGRDGHFTLFAPTNEAFEKLPRGVLERFMGDKVASEALMKYHILNTLQCSESIMGGAVFETLEGNTIEIGCDGDSITVNGIKMVNKKDIVTNNGVIHLIDQVLIPDSAKQVIELAGKQQTTFTDLVAQLGLASALRPDGEYTLLAPVNNAFSDDTLSMVQRLLKLILQNHILKVKVGLNELYNGQILETIGGKQLRVFVYRTAVCIENSCMEKGSKQGRNGAIHIFREIIKPAEKSLHEKLKQDKRFSTFLSLLEAADLKELLTQPGDWTLFVPTNDAFKGMTSEEKEILIRDKNALQNIILYHLTPGVFIGKGFEPGVTNILKTTQGSKIFLKEVNDTLLVNELKSKESDIMTTNGVIHVVDKLLYPADTPVGNDQLLEILNKLIKYIQIKFVRGSTFKEIPVTVYTTKIITKVVEPKIKVIEGSLQPIIKTEGPTLTKVKIEGEPEFRLIKEGETITEVIHGEPIIKKYTKIIDGVPVEITEKETREERIITGPEIKYTRISTGGGETEETLKKLLQEEVTKVTKFIEGGDGHLFEDEEIKRLLQGDTPVRKLQANKKVQGSRRRLREGRSQ"}},
  "key": {"[1]": {"system": "Adult male Sprague-Dawley rats", "experiment": "Cardiomyocyte cell cycle activity in vivo after intramyocardial injection", "design": "species or system rat", "settings": "dispersed isolated cardiomyocytes"}, "[2]": {"system": "Adult male Sprague-Dawley rats", "experiment": "Cardiomyocyte cell cycle activity in vivo after intramyocardial injection", "design": "species or system rat; LVFW CM nuclei: unit not given here", "method": "Experiments were performed in accordance with institutional guidelines of Massachusetts General Hospital. Injections and analyses were performed in a blinded fashion. Adult male Sprague-Dawley rats (300 gm, Charles River Laboratories) underwent thoracotomy and received intramyocardial injections of 50 μg of recombinant human periostin consisting of the fas1-4 domains, 50 μg of rat fibronectin, or 100 μL of 100 mM sodium acetate as a control (5 rats per group). The survival rate for this procedure was 80%. Injected periostin was confirmed by detection with a polyclonal antibody directed against human periostin (Abcam) and visualized by immunofluorescence microscopy. Intraperitoneal injections of BrdU (70 μmol/kg body weight) with a tissue half life of 2 hr were given every 48 hr, and rats were sacrificed after the third injection. Horizontal cryosections of 14 μm thickness spaced at 1 mm intervals were analyzed by laser scanning immunofluorescence microscopy. BrdU-positive cardiomyocyte nuclei and cytokineses were quantified on 16-20 sections per heart. Fibrosis and cardiomyocyte cross-sectional area were determined on 5 Masson's Trichrome-stained sections at the level of the injection at 40× magnification and quantified using the Metamorph software package (Molecular Devices Corp., Downingtown, Pa.)."}, "[3]": {"settings": "1 week after intracardiac injection"}},
  "data": [
    {"molecule": "B1", "values": [
      {"measurement": "H3P-positive mononucleated cardiomyocytes", "setting": "[1]", "value": "2±0.2", "unit": "%"},
      {"measurement": "LVFW BrdU-positive CM nuclei", "setting": "[2]; [3]", "value": "0.051 ± 0.0021", "unit": "%"},
      {"measurement": "LVFW CM nuclei", "setting": "[2]; [3]", "value": "10.3 ± 0.3 10^$$ per heart"},
      {"measurement": "LVFW cytokineses", "setting": "[2]; [3]", "value": "0.008±0.002", "unit": "%"},
      {"measurement": "LVFW BrdU-positive CM nuclei", "setting": "[2]; 1 week after intracardiac injection, 3 BrdU injections", "value": "5,322±363 per heart"},
      {"measurement": "LVFW BrdU-positive CM nuclei", "setting": "[2]; 1 week after intracardiac injection, 3 BrdU injections, listed as PN", "value": "5411 ± 376", "unit": "per heart"},
      {"measurement": "LVFW myocardial volume", "setting": "[2]; 1 week after intracardiac injection, 50 μg periostin (fas1-4 domains) or 50 μg rat fibronectin", "value": "211.3 ± 12.3", "unit": "mm^3"},
      {"measurement": "LVFW cytokineses", "setting": "[2]; 1 week after intracardiac injection, listed as Periostin", "value": "821±176", "unit": "per heart"},
      {"measurement": "fibrosis after intramyocardial injection", "setting": "[2]; FIG. 4a", "value": "did not induce"},
      {"measurement": "hypertrophy (cardiomyocyte cross-sectional area) after intramyocardial injection", "setting": "[2]; FIG. 4b", "value": "did not induce"},
      {"measurement": "H3P-positive binucleated cardiomyocytes", "setting": "[2]; dispersed isolated cardiomyocytes, in vivo", "value": "0.04±0.01", "unit": "%"},
      {"measurement": "DNA synthesis, of cardiomyocyte nuclei in the injected area", "setting": "[2]; rat, in vivo", "value": "0.7±0.1", "unit": "%"},
      {"measurement": "cytokinesis, of cardiomyocyte nuclei in the injected area", "setting": "[2]; rat, in vivo", "value": "0.1±0.03", "unit": "%"},
      {"measurement": "increase of DNA synthesis compared with buffer-injected hearts", "setting": "[2]; rat, in vivo", "value": 8, "unit": "fold"},
      {"measurement": "increase of cytokinesis compared with buffer-injected hearts", "setting": "[2]; rat, in vivo", "value": 11.5, "unit": "fold"}
    ]}
  ]
}
